Laboratory results reported in patent publication US20220298475A1.

Tests used:
[1] = target: SIINFEKL N4 peptide (OVA257-264) presented on MHC-I H-2Kb of dendritic cells (mouse); test: cell-based or functional assay
[2] = target: LCMV Gp61-80 peptide … presented by MHC-II of dendritic cells (lymphocytic choriomeningitis virus (LCMV)); test: cell-based or functional assay
Chain of LCMV Gp61-80 peptide … presented by MHC-II of dendritic cells (lymphocytic choriomeningitis virus (LCMV)) (P07399 61-80): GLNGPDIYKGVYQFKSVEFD

Substance | signal-to-background ratio of biotin labeling on OT-I CD8+ cells (iDC-FT pulsed with 10 nM peptide, flow cytometry) (ratio (signal:background)) [1] | signal-to-background ratio of biotin labeling on OT-I CD8+ cells (iDC-FT pulsed with 100 nM peptide, flow cytometry) (ratio (signal:background)) [1] | signal/background ratio of biotinylated OT-I CD8+ T cells, DC-FT made by Method 1 (background: DC-enzyme primed with LCMV GP33-41) [1] | signal/background ratio of biotinylated OT-I CD8+ T cells, DC-NHS-FT made by Method 2 (background: DC-enzyme primed with LCMV GP33-41) [1] | streptavidin-APC+ OT-I CD8+ cells, DC-FT made by Method 1 [1] | streptavidin-APC+ OT-I CD8+ cells, DC-NHS-FT made by Method 2 [1] | percentage of OT-II CD4+ T cells biotinylated by peptide-pulsed DC-FT [2]
transgenic T cell receptor (TCR) of OT-I CD8+ T cells, specific for the SIINFEKL N4 of ovalbumin presented on MHC I | 10 | 66 | 592 | 9.2 | 77% | 16% | –
TCR of OT-II CD4+ T cells, specific for the OVA323-339 peptide | – | – | – | – | – | – | 1.68%
